In patent US20240034762A1 (YALE UNIVERSITY, published 2024):
No end group written: not given here.

T1: soluble extracellular domain of human α-Klotho (aa 1-980) fused to a 6xHis tag (human, UniProt Q9UEF7 34-980)
T1 construct: Secreted from HEK293 EBNA cells; also called sKLA; soluble α-Klotho
T1 sequence: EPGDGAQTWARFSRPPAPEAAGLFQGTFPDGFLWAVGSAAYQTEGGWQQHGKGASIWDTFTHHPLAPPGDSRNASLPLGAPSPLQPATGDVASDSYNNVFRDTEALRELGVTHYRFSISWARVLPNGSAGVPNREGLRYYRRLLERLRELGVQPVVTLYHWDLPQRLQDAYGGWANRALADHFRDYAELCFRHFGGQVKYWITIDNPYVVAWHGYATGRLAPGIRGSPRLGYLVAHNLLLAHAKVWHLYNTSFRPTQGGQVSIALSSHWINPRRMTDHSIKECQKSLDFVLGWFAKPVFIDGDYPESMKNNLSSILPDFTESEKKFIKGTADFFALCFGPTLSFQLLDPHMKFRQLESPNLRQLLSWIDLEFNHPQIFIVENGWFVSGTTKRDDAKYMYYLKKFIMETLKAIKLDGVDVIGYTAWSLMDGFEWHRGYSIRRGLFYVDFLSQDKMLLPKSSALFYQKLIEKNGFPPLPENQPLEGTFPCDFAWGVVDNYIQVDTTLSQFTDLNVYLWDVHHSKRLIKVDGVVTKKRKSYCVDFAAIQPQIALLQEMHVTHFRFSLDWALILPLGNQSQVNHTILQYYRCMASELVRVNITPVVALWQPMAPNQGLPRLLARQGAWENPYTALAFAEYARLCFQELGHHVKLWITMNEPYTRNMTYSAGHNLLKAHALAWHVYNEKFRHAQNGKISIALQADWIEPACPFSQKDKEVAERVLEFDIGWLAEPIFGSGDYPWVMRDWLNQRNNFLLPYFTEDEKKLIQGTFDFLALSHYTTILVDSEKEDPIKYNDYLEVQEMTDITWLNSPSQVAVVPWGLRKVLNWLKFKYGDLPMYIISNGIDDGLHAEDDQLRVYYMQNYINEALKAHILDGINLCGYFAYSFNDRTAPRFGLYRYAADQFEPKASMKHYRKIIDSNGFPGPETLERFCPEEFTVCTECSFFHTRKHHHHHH


Experiments:
[1] = molecular target: T1, soluble extracellular domain of human …; assay: BLI (Octet); GST fusion captured on anti-GST biosensor, sKLA in solution at 6.25-200 nM, 1:1 fit, mean ± S.D. of 3 experiments
Protocol: (§1) Kinetic parameters and dissociation constants of sKLA binding to the various forms of full length FGF23 or GST-fused C-terminal fragments of FGF23 were studied using Bio-Layer Interferometry (BLI). Octet RED96 system (Pall ForteBio) equipped with anti-mouse IgG Fc (AMC) biosensors was used to study interactions between α-Klotho and FLAG-tagged FGF23. Biosensor tips were loaded with anti-FLAG M2 antibody (Millipore Sigma) at 5 μg/ml for 2 min, washed in BLI buffer (25 mM HEPES, 150 mM NaCl, pH 7.5, 0.002% Tween-20, 1 mg/mL BSA) for 60 s, and then loaded with FLAG-tagged FGF23 at 5 μg/ml for 4 min. Alternatively, anti-GST biosensor tips were loaded with 5 ug/ml GST fused with various FGF23 C-terminal fragments for 15 s. Subsequently, ligand-loaded sensor tips were dipped into microplate wells containing different sKLA concentrations, ranging from 6.25 nM to 200 nM in 2-fold dilutions of BLI buffer. After each binding cycle the sensor tips were regenerated with 10 mM glycine (pH 1.5). The collected data were referenced using a parallel buffer control subtraction, and sensograms were fitted globally to a 1:1 Langmuir binding model using ForteBio Data Analysis 10.0 software provided by the manufacturer.
To examine the significance of each of the two FGF23 repeats in α-Klotho binding and receptor activation, bio-layer interferometry (BLI) analyses was applied to measure the kinetic parameters and dissociation constants of each repeat alone or the entire C-terminal tail of FGF23 towards sKLA. To that end, GST-fusion proteins expressing either full length (FL) tail of FGF23 (amino acids […]), the first repeat R1 (amino acids S180-S205), or the second repeat R2 (amino acids […]) were produced in E. coli (FIG. 6) and immobilized on BLI sensors. sKLA was produced in HEK293 EBNA cells and used as an analyte in the BLI measurements (see elsewhere herein).

[2] = molecular target: T1, soluble extracellular domain of human …; assay: BLI; FLAG-tagged FGF23 captured by anti-FLAG M2 on anti-mouse Fc sensors, sKLA 6.25-200 nM as analyte, 1:1 fit
Protocol: FIG. 10A: BLI sensorgrams of binding of FGF23-WT, FGF23-CS, FGF23 D188A, and FGF23-CS D188A to sKLA. Biosensors coated with anti-mouse-Fc antibody was used to immobilize anti-Flag antibody followed by capturing Flag-tagged FGF23-WT or FGF23-CS. Biosensors were then dipped into solutions containing a series of concentrations of sKLA (200, 100, 50, 25, 12.5, and 6.25 nM). The resulting sensorgrams were fitted with a 1:1 ligand:receptor binding model to calculate kinetic parameters and dissociation constants. FIGS. 10B-10C: HEK293 cells stably expressing FGFR1c together with α-Klotho were left unstimulated or stimulated with increasing concentrations of FGF23-WT or FGF23-CS mutant, as indicated, for 10 minutes at 37° C. Cell lysates were subjected to SDS-PAGE and analyzed for serine phosphorylation of FGFR1, tyrosine phosphorylation of FRS2 and for MAPK activation by immunoblotting with anti-FGFR1-pS, anti-pFRS2 and anti-pMAPK antibodies, respectively and with anti-MAPK as a control. FIG. 10D: Schematic diagram depicting the bivalency of the C-terminal tail of FGF23 binding to α-Klotho.
as §1

Binder | Kd [1] [nM] | koff [1] [s⁻¹] | kon [1] [M⁻¹ s⁻¹] | Kd [2] [nM] | koff [2] [s⁻¹] | kon [2] [M⁻¹ s⁻¹]
FLAG-tagged human FGF23 D188A mutant expressed in Expi293F cells (ligand) DYKDDDDKYPNASPLLGSSWGGLIHLYTATARNSYHLQIHKNGHVDGAPHQTIYSALMIRSEDAGFVVITGVMSRRYLCMDFRGNIFGSHYFDPENCRFQHQTLENGYDVYHSPQYHFLVSLGAAKAAFLPGMNPPPYSQFLSRRNEIPLIHFNTPIPRQHTQSAEDDSERAPLNVLKPRARMTPAPASCSQELPSAEDNSPMASDPLGVVRGGRVNTHAGGTGPEGCRPFAKFI | – | – | – | 13 | 0.0036 | 280000
FLAG-tagged human FGF23 C206S/C244S mutant expressed in Expi293F cells (ligand, O-linked glycosylation (sites not given), also called FGF23-CS; mFGF23-CS) DYKDDDDKYPNASPLLGSSWGGLIHLYTATARNSYHLQIHKNGHVDGAPHQTIYSALMIRSEDAGFVVITGVMSRRYLCMDFRGNIFGSHYFDPENCRFQHQTLENGYDVYHSPQYHFLVSLGAAKAAFLPGMNPPPYSQFLSRRNEIPLIHFNTPIPRQHTQSAEDDSERDPLNVLKPRARMTPAPASSSQELPSAEDNSPMASDPLGVVRGGRVNTHAGGTGPEGSRPFAKFI | – | – | – | 18 | 0.0042 | 230000
FLAG-tagged human FGF23 (aa 25-251) expressed in Expi293F cells (ligand, O-linked glycosylation (sites not given); Cys206-Cys244 disulfide bridge, also called FGF23-WT; mFGF23-WT) DYKDDDDKYPNASPLLGSSWGGLIHLYTATARNSYHLQIHKNGHVDGAPHQTIYSALMIRSEDAGFVVITGVMSRRYLCMDFRGNIFGSHYFDPENCRFQHQTLENGYDVYHSPQYHFLVSLGAAKAAFLPGMNPPPYSQFLSRRNEIPLIHFNTPIPRQHTQSAEDDSERDPLNVLKPRARMTPAPASCSQELPSAEDNSPMASDPLGVVRGGRVNTHAGGTGPEGCRPFAKFI | – | – | – | 14 | 0.0034 | 260000

Next, values leading:

Kd [1] [nM] | koff [1] [s⁻¹] | kon [1] [M⁻¹ s⁻¹] | Kd [2] [nM] | koff [2] [s⁻¹] | kon [2] [M⁻¹ s⁻¹] | Binder
20 | 0.0041 | 210000 | – | – | – | SAEDDSERDPLNVLKPRARMTPAPAS (other, also: GST fusion partner (recombinant, not part of given chain), Expressed in E. coli; also called GST-R1; not shown: glutathione S-transferase encoded by the pGEX4T1 vector (GE Healthcare)) [GST fusion of repeat 1 (R1, aa 180-205) of the human FGF23 C-terminal tail]
– | – | – | 18 | 0.0044 | 250000 | FLAG-tagged human FGF23 C206S/C244S/D188A mutant expressed in Expi293F cells (ligand, also called FGF23-CS D188A) DYKDDDDKYPNASPLLGSSWGGLIHLYTATARNSYHLQIHKNGHVDGAPHQTIYSALMIRSEDAGFVVITGVMSRRYLCMDFRGNIFGSHYFDPENCRFQHQTLENGYDVYHSPQYHFLVSLGAAKAAFLPGMNPPPYSQFLSRRNEIPLIHFNTPIPRQHTQSAEDDSERAPLNVLKPRARMTPAPASSSQELPSAEDNSPMASDPLGVVRGGRVNTHAGGTGPEGSRPFAKFI
